The values below come from the Human Domainome abundance scans (Beltran et al. 2025).

First the molecules themselves.
B1: Transitional endoplasmic reticulum ATPase, residues 26 to 106; numbered along this chain, P55072 (parent)
chain: LIVDEAINEDNSVVSLSQPKMDELQLFRGDTVLLKGKKRREAVCIVLSDDTCSDEKIRMNRVVRNNLRVRLGDVISIQPCP
B2: Gamma-crystallin C, residues 91 to 170; numbered along this chain, P07315 (parent)
chain: RLYEREDHKGLMMELSEDCPSIQDRFHLSEIRSLHVLEGCWVLYELPNYRGRQYLLRPQEYRRCQDWGAMDAKAGSLRRV

± gives the uncertainty stated by the source.

One data set covers variants of B1. The data set can be described thus: abundance fitness (aPCA) (normalised: wild type 0, dead -1); higher = more abundant; growth selection in yeast, the domain comes from the species named. Particulars: Homo sapiens.
Consider E5Q, for which the abundance fitness is -0.124 ± 0.12. For E5P, the abundance fitness was -0.149 ± 0.051. Consider E5F, for which the abundance fitness was 0.016 ± 0.084. With E5S, the abundance fitness came to 0.029 ± 0.052. Same read-out and setting: next, E5L: -0.107 ± 0.041; E5N: -0.018 ± 0.12; E5Y: 0.048 ± 0.089. The same measure, in the same setting: next, E5C: -0.013 ± 0.054; E5H: -0.224 ± 0.1. Still for that read-out and setting: under E5G stands -0.032 ± 0.051; under E5D, 0.003 ± 0.11. On to E5W, for which the abundance fitness was -0.051 ± 0.044.

With E5V, the abundance fitness was -0.068 ± 0.041. Take E5I: the abundance fitness was -0.045 ± 0.048. Same read-out and setting: next, E5T: -0.1 ± 0.058.

As for E5M, the abundance fitness came out at 0.042 ± 0.063. Still for that read-out and setting: next, L1S: -0.264 ± 0.075; L1F: 0.15 ± 0.13.

On to L1A, for which the abundance fitness was -0.126 ± 0.11. Same read-out and setting: next, L1M: -0.046 ± 0.16; L1I: 0.128 ± 0.14; L1R: -0.744 ± 0.23. As for L1K, the abundance fitness is -0.292 ± 0.31. Turning to L1Y, the abundance fitness was -0.582 ± 0.26.

As to L1G, the abundance fitness was -0.662 ± 0.21. For L1V, the abundance fitness is -0.003 ± 0.1. Same read-out and setting: next, L1T: -0.424 ± 0.13; L1C: -0.117 ± 0.21.

As to D4C, the abundance fitness is 0.096 ± 0.073. Still for that read-out and setting: next, D4G: -0.085 ± 0.043.

On to D4A, for which the abundance fitness is -0.009 ± 0.055. Regarding D4T, the abundance fitness is -0.017 ± 0.061.

Consider D4R, for which the abundance fitness is -0.627 ± 0.062. For D4E, the abundance fitness was -0.015 ± 0.095. Still for that read-out and setting: next, D4W: -0.091 ± 0.08; D4F: -0.345 ± 0.11. Regarding D4N, the abundance fitness is -0.332 ± 0.16. On the same count and under the same terms, next, D4I: 0.052 ± 0.12. For the variant D4S, the abundance fitness is -0.018 ± 0.05.

For the variant D4K, the abundance fitness was -0.271 ± 0.13. Same read-out and setting: next, D4Y: -0.32 ± 0.28; D4V: -0.082 ± 0.048; D4L: -0.203 ± 0.047. The same measure, in the same setting: next, D4H: -0.04 ± 0.26; D4P: -1.11 ± 0.19. Take D4M: the abundance fitness is -0.041 ± 0.077. On the same count and under the same terms, under D4Q stands -0.179 ± 0.071. For the variant I2Q, the abundance fitness was -0.164 ± 0.097. For the variant I2V, the abundance fitness is -0.058 ± 0.068. In the case of I2K, the abundance fitness is -0.006 ± 0.11.

For I2T, the abundance fitness worked out at 0.024 ± 0.083.

With I2R, the abundance fitness is -0.162 ± 0.049. For I2P, the abundance fitness was -0.891 ± 0.27. Same read-out and setting: under I2S stands -0.196 ± 0.065; under I2G, -0.357 ± 0.066; under I2W, -0.302 ± 0.11. As for I2E, the abundance fitness is -0.167 ± 0.11. On the same count and under the same terms, under I2L stands -0.115 ± 0.055; under I2C, -0.162 ± 0.078; under I2D, -0.806 ± 0.17. As to I2F, the abundance fitness was -0.103 ± 0.051. As for I2Y, the abundance fitness was -0.418 ± 0.22. For I2A, the abundance fitness was -0.45 ± 0.12. The same measure, in the same setting: next, I2M: -0.102 ± 0.075.

For the variant I2N, the abundance fitness is -0.059 ± 0.14. Same read-out and setting: next, V3A: -0.242 ± 0.066; V3Q: -0.891 ± 0.17; V3D: -0.529 ± 0.41.

As to V3F, the abundance fitness was -0.797 ± 0.21.

Consider V3E, for which the abundance fitness is -0.809 ± 0.17. Same read-out and setting: under V3T stands -0.432 ± 0.097; under V3C, -0.173 ± 0.13; under V3I, -0.037 ± 0.13. On to V3W, for which the abundance fitness is -0.952 ± 0.17. On the same count and under the same terms, under V3L stands -0.708 ± 0.12. With V3P, the abundance fitness is -0.948 ± 0.31.

V3M: the abundance fitness was -0.194 ± 0.093. On the same count and under the same terms, under V3G stands -0.811 ± 0.088. With V3K, the abundance fitness is -0.639 ± 0.23.

With V3S, the abundance fitness is -0.773 ± 0.14.

Take V3R: the abundance fitness was -0.992 ± 0.15. Take A6K: the abundance fitness is -0.154 ± 0.079. Consider A6S, for which the abundance fitness amounted to 0.029 ± 0.061. With A6F, the abundance fitness is 0.093 ± 0.085. Still for that read-out and setting: under A6P stands 0.024 ± 0.087. In the case of A6C, the abundance fitness is -0.048 ± 0.077. On to A6R, for which the abundance fitness was -0.084 ± 0.053.

Consider A6G, for which the abundance fitness worked out at 0.024 ± 0.044.

As to A6Y, the abundance fitness is -0.404 ± 0.21. Still for that read-out and setting: under A6H stands 0.001 ± 0.084; under A6Q, 0.007 ± 0.073.

A6N: the abundance fitness is -0.004 ± 0.22. Turning to A6V, the abundance fitness is -0.133 ± 0.037. Consider A6W, for which the abundance fitness is -0.006 ± 0.064.

For the variant A6D, the abundance fitness is -0.054 ± 0.09. On the same count and under the same terms, next, A6L: 0.092 ± 0.051; A6I: 0.002 ± 0.12; A6T: 0.046 ± 0.053. The same measure, in the same setting: under A6E stands -0.107 ± 0.059; under I7A, -0.019 ± 0.051.

In another data set the parent is B2. The data set is described as above. Particulars: Homo sapiens.
With Q65S, the abundance fitness is -0.02 ± 0.059. On the same count and under the same terms, under Q65K stands -0.06 ± 0.12; under Q65G, -0.08 ± 0.1. Same read-out and setting: next, Q65F: -0.248 ± 0.15; Q65V: 0.071 ± 0.11; Q65N: -0.129 ± 0.16. Still for that read-out and setting: next, Q65P: -0.687 ± 0.089. On to Q65T, for which the abundance fitness is -0.032 ± 0.074. The same measure, in the same setting: next, Q65E: -0.044 ± 0.15; Q65A: -0.075 ± 0.049; Q65L: -0.17 ± 0.073.

Q65R: the abundance fitness is -0.173 ± 0.061. Same read-out and setting: under Q65H stands -0.242 ± 0.2. Regarding Q65D, the abundance fitness is -0.355 ± 0.2. Same read-out and setting: next, Q65Y: -0.149 ± 0.16; Q65I: -0.336 ± 0.27.

As for Q65M, the abundance fitness was -0.283 ± 0.12. On to Q65C, for which the abundance fitness was -0.265 ± 0.11. Turning to Y61V, the abundance fitness is -1.05 ± 0.26.

Y61L: the abundance fitness is -0.922 ± 0.15. The same measure, in the same setting: under Y61M stands -0.964 ± 0.2. As for Y61P, the abundance fitness is -1.07 ± 0.2. With Y61C, the abundance fitness was -0.934 ± 0.14.

On to Y61I, for which the abundance fitness is -0.808 ± 0.37. Consider Y61H, for which the abundance fitness was -0.919 ± 0.32. On the same count and under the same terms, next, Y61G: -0.925 ± 0.16. On the same count and under the same terms, next, Y61A: -1.04 ± 0.34; Y61T: -0.529 ± 0.12; Y61S: -0.936 ± 0.12.

Y61R: the abundance fitness is -1.06 ± 0.21. As to D66H, the abundance fitness was -0.548 ± 0.23. As for D66R, the abundance fitness is -0.857 ± 0.14.

In the case of D66W, the abundance fitness was -0.639 ± 0.18. Still for that read-out and setting: under D66A stands -0.313 ± 0.12; under D66V, -0.749 ± 0.15; under D66M, -0.47 ± 0.13. Still for that read-out and setting: under D66S stands -0.316 ± 0.06. For D66Y, the abundance fitness was -0.603 ± 0.27. Same read-out and setting: next, D66P: -0.879 ± 0.17; D66C: -0.485 ± 0.22; D66L: -0.518 ± 0.054. Still for that read-out and setting: under D66T stands -0.934 ± 0.29; under D66E, -0.083 ± 0.14. On the same count and under the same terms, next, D66Q: -0.491 ± 0.12. Consider G68R, for which the abundance fitness was -0.764 ± 0.12. The same measure, in the same setting: next, G68V: -0.985 ± 0.29. On the same count and under the same terms, under G68P stands -0.784 ± 0.22; under G68S, -0.44 ± 0.11. Take G68A: the abundance fitness is -0.721 ± 0.15. As to G68T, the abundance fitness is -1.01 ± 0.28. Regarding G68D, the abundance fitness is -0.679 ± 0.27. For G68Q, the abundance fitness is -0.763 ± 0.2. On the same count and under the same terms, next, G68L: -0.529 ± 0.092; G68K: -0.623 ± 0.26.

With G68C, the abundance fitness is -0.696 ± 0.48.

As for S76V, the abundance fitness was -0.773 ± 0.18. As for S76A, the abundance fitness was -0.628 ± 0.14. As for S76H, the abundance fitness was -0.735 ± 0.36. On the same count and under the same terms, next, S76I: 0.016 ± 0.29; S76P: -0.776 ± 0.19; R63Q: -0.089 ± 0.05.

As for R63C, the abundance fitness was -0.15 ± 0.14. Still for that read-out and setting: next, R63Y: -0.23 ± 0.18. As for R63D, the abundance fitness was -0.58 ± 0.16. With R63F, the abundance fitness is -0.574 ± 0.18. With R63H, the abundance fitness was -0.167 ± 0.12. Consider R63M, for which the abundance fitness was -0.32 ± 0.11.
